According to patent US20180193452A1 (NEMOURS FOUNDATION, published 2018):
Changes are numbered by the printed parent chain. Names may count otherwise.

B1: FcεRIα extracellular domain mutant K117D (receptor)
chain: VPQKPKVSLNPPWNRIFKGENVTLTCNGNNFFEVSSTKWFHNGSLSEETNSSLNIVNAKFEDSGEYKCQHQQVNESEPVYLEVFSDWLLLQASAEVVMEGQPLFLRCHGWRNWDVYDVIYYKDGEALKYWYENHNISITNATVEDSGTYYCTGKVWQLDYESEPLNITVIKAPREKYWLQ
B2: FcεRIα extracellular domain mutant W113A (receptor)
chain: B1 chain with W113A, D117K
B3: FcεRIα extracellular domain mutant V155A (receptor)
chain: B1 chain with D117K, V155A
B4: FcεRIα extracellular domain mutant W87D (receptor)
chain: B1 chain with W87D, D117K
B5: FcεRIα extracellular domain mutant D159A (receptor)
chain: B1 chain with D117K, D159A
B6: FcεRIα extracellular domain mutant Y131A (receptor)
chain: B1 chain with D117K, Y131A

target: T1, purified human IgE (Abcam) (human, UniProt P01854-1 1-428); experiment: not told
T1 construct: also called free IgE; secreted IgE
T1 sequence (P01854 other isoform, or with tags, fused parts or gaps): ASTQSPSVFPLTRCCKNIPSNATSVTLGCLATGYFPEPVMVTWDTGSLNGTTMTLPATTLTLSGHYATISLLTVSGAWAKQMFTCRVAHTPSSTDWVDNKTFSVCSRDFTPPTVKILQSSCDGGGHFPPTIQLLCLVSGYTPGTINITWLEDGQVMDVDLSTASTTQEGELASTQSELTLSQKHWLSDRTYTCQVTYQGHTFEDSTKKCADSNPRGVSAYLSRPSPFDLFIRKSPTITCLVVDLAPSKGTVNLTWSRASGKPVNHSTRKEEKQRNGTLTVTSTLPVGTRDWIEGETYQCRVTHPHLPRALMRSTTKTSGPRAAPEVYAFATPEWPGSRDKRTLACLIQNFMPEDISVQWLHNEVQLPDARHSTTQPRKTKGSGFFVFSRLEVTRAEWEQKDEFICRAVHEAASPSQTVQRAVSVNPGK

| Binder | fold affinity reduction over wild type [fold] |
| --- | --- |
| B1 | 27 |
| B2 | 5 |
| B3 | 10 |
| B4 | 7 |
| B5 | 2 |
| B6 | 3 |
